The values that follow come from publication PMC2661963, “The Active Site of a Carbohydrate Esterase Displays Divergent Catalytic and Noncatalytic Binding Functions” (PLoS Biology, 2009).

In data set [1] the target is T1, CtCE2 (Acetivibrio thermocellus, UniProt P10477).
T1 construct: gene celE; C-terminal CE2 esterase module only, residues 482-814 of the full-length enzyme, C-terminal His6 tag, pET22b, E. coli BL21
In words: isothermal titration calorimetry. As to conditions: 50 mM HEPES-Na, 25 °C; pH 8.0 with 300 mM NaCl (Methods; Figure 5 legend says pH 7.0); binds across esterase active site. Format: binding. The source says: (§1) isothermal titration calorimetry on CtCE2
In general terms: ITC needs no label: the signal is the heat of the interaction.

The target of data set [2] is T2, CtCE2 (Acetivibrio thermocellus, UniProt P10477, Y683A).
T2 construct: gene celE; C-terminal CE2 esterase module only, residues 482-814 of the full-length enzyme, C-terminal His6 tag, pET22b, E. coli BL21
T2 sequence (P10477 482-814 Y683A): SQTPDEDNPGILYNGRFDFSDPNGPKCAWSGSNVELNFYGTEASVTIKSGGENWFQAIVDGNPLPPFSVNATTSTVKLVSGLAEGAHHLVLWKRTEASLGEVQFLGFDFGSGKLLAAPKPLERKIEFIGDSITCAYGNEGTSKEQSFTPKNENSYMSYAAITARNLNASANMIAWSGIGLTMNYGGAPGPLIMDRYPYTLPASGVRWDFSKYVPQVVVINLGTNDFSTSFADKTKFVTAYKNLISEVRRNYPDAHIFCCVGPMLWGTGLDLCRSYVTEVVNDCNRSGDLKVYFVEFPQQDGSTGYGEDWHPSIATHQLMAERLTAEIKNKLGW
In words: isothermal titration calorimetry. Format: binding. Conditions: 50 mM HEPES-Na, 25 °C; pH 8.0 with 300 mM NaCl (Methods; Figure 5 legend says pH 7.0); binds across esterase active site.
Text: as §1

For data set [3], the target named is T3, CtCE2 (Acetivibrio thermocellus, UniProt P10477, H791A).
T3 construct: gene celE; C-terminal CE2 esterase module only, residues 482-814 of the full-length enzyme, C-terminal His6 tag, pET22b, E. coli BL21
T3 sequence (P10477 482-814 H791A): as the sequence (P10477 482-814 Y683A) above, with A202Y, H310A counted along it
In words: isothermal titration calorimetry. Format: binding. As to conditions: 50 mM HEPES-Na, 25 °C; pH 8.0 with 300 mM NaCl (Methods; Figure 5 legend says pH 7.0); binds across esterase active site.
Text: as §1

The target in data set [4] is T4, CtCE2 (Acetivibrio thermocellus, UniProt P10477, W746A).
T4 construct: gene celE; C-terminal CE2 esterase module only, residues 482-814 of the full-length enzyme, C-terminal His6 tag, pET22b, E. coli BL21
T4 sequence (P10477 482-814 W746A): as the sequence (P10477 482-814 Y683A) above, with A202Y, W265A counted along it
In words: isothermal titration calorimetry. In kind it is binding. As to conditions: 50 mM HEPES-Na, 25 °C; pH 8.0 with 300 mM NaCl (Methods; Figure 5 legend says pH 7.0); binds across esterase active site.
Text: as §1

The target in data set [5] is T5, CtCE2 (Acetivibrio thermocellus, UniProt P10477, S612A).
T5 construct: gene celE; C-terminal CE2 esterase module only, residues 482-814 of the full-length enzyme, C-terminal His6 tag, pET22b, E. coli BL21
T5 sequence (P10477 482-814 S612A): as the sequence (P10477 482-814 Y683A) above, with S131A, A202Y counted along it
In words: isothermal titration calorimetry. In kind it is binding. Conditions: 50 mM HEPES-Na, 25 °C; pH 8.0 with 300 mM NaCl (Methods; Figure 5 legend says pH 7.0); binds across esterase active site.
Text: as §1

Data set [6] concerns the target T1, CtCE2. In words: inhibition of 4-nitrophenyl acetate hydrolysis. In kind it is biochemical. As to conditions: substrate 4-nitrophenyl acetate; noncompetitive; 37 °C. The text has this: inhibition of 4-nitrophenyl acetate hydrolysis on CtCE2
Substrate in data set [7]: CC(=O)Oc1ccc([N+](=O)[O-])cc1
In words: purified protein. Format: biochemical, Cellvibrio japonicus. As to conditions: 50 mM sodium phosphate pH 7.0, 1 mg/ml BSA.

Substrate in data set [8]: CC(=O)Oc1ccc([N+](=O)[O-])cc1
In words: purified protein. Format: biochemical, Acetivibrio thermocellus. As to conditions: 50 mM sodium phosphate pH 7.0, 1 mg/ml BSA.

By Kd is commonly meant the concentration at which binding is half-saturated. Low values mean tighter binding, high ones weaker binding. The molecule `OC[C@H]1O[C@@H](O[C@H]2[C@H](O)[C@@H](O)[C@H](O[C@H]3[C@H](O)[C@@H](O)[C@H](O[C@H]4[C@H](O)[C@@H](O)C(O)O[C@@H]4CO)O[C@@H]3CO)O[C@@H]2CO)[C@H](O)[C@@H](O)[C@@H]1O` (stereo partly shown) [cellotetraose] yielded a Kd in data set [1] of 333 µM.

Consider `OC[C@H]1O[C@@H](O[C@H]2[C@H](O)[C@@H](O)[C@H](O[C@H]3[C@H](O)[C@@H](O)[C@H](O[C@H]4[C@H](O)[C@@H](O)[C@H](O[C@H]5[C@H](O)[C@@H](O)C(O)O[C@@H]5CO)O[C@@H]4CO)O[C@@H]3CO)O[C@@H]2CO)[C@H](O)[C@@H](O)[C@@H]1O` (stereo partly shown) [cellopentaose], for which the Kd in data set [1] came out at 71 µM.

In general, Ki refers to the equilibrium dissociation constant of an inhibitor or competing ligand from its target. On to `OC[C@H]1O[C@@H](O[C@H]2[C@H](O)[C@@H](O)[C@H](O[C@H]3[C@H](O)[C@@H](O)[C@H](O[C@H]4[C@H](O)[C@@H](O)[C@H](O[C@H]5[C@H](O)[C@@H](O)[C@H](O[C@H]6[C@H](O)[C@@H](O)C(O)O[C@@H]6CO)O[C@@H]5CO)O[C@@H]4CO)O[C@@H]3CO)O[C@@H]2CO)[C@H](O)[C@@H](O)[C@@H]1O` (stereo partly shown) [cellohexaose], for which the Kd in data set [1] was 33 µM; in data set [2], 37 µM; in data set [3], 667 µM; in data set [4], over 1000 µM; in data set [5], 4.1 µM. In data set [6], this molecule displayed a Ki of 3.1 µM.

Regarding `OC[C@H]1O[C@@H](O[C@H]2[C@H](O)[C@@H](O)[C@H](O[C@H]3[C@H](O)[C@@H](O)C(O)O[C@@H]3CO)O[C@@H]2CO)[C@H](O)[C@@H](O)[C@@H]1O` (stereo partly shown) [cellotriose], the Kd in data set [1] is over 1000 µM.

B1: CjCE2A (Cellvibrio japonicus Ueda107) (protein)
chain: NTQSLMSSTHTIAASDPHIQVMGRTHINDDASLTFGYPGVSLSTIVAGSRLTAEMQSSNGNSWIDVIIDNHPPTSIKLDAQQQTVELFHFPNSGEHRVEIIHRSENWHGQVTLKQLTLTGTQFLPAPVLPQRKILVLGDSVTCGEAIDRVAGEDKNTRWWNARESYGMLTAKALDAQVQLVCWGGRGLIRSWNGKTDDANLPDFYQFTLGDTGQAPQWDHHRYQPDLIISAIGTNDFSPGIPDRATYINTYTRFVRTLLDNHPQATIVLTEGAILNGDKKAALVSYIGETRQQLHSNRVFYASSSHHPGDNSDAHPTKDQHAAMARELTPQLRQIMDW
notes: mature form (signal peptide removed), C-terminal His6 tag, pET22b, E. coli BL21; catalytic triad Ser-160, His-335, Asp-333; Trp-127, Trp-212
For orientation: Km means the substrate concentration at which the rate is half of its maximum. As for B1, in data set [7], the Km turned out to be 339 µM and the kcat was 7,717 min-1.

B2: CtCE2 (Acetivibrio thermocellus ATCC 27405; D789A) (protein)
chain: SQTPDEDNPGILYNGRFDFSDPNGPKCAWSGSNVELNFYGTEASVTIKSGGENWFQAIVDGNPLPPFSVNATTSTVKLVSGLAEGAHHLVLWKRTEASLGEVQFLGFDFGSGKLLAAPKPLERKIEFIGDSITCAYGNEGTSKEQSFTPKNENSYMSYAAITARNLNASANMIAWSGIGLTMNYGGAPGPLIMDRYPYTLPYSGVRWDFSKYVPQVVVINLGTNDFSTSFADKTKFVTAYKNLISEVRRNYPDAHIFCCVGPMLWGTGLDLCRSYVTEVVNDCNRSGDLKVYFVEFPQQDGSTGYGEAWHPSIATHQLMAERLTAEIKNKLGW
notes: C-terminal CE2 esterase module only, residues 482-814 of the full-length enzyme, C-terminal His6 tag, pET22b, E. coli BL21
On to B2, for which, in data set [8], the Km turned out to be 75 µM and the kcat is on record as 2,512 min-1.

B3: CtCE2 (Acetivibrio thermocellus ATCC 27405) (protein)
chain: SQTPDEDNPGILYNGRFDFSDPNGPKCAWSGSNVELNFYGTEASVTIKSGGENWFQAIVDGNPLPPFSVNATTSTVKLVSGLAEGAHHLVLWKRTEASLGEVQFLGFDFGSGKLLAAPKPLERKIEFIGDSITCAYGNEGTSKEQSFTPKNENSYMSYAAITARNLNASANMIAWSGIGLTMNYGGAPGPLIMDRYPYTLPYSGVRWDFSKYVPQVVVINLGTNDFSTSFADKTKFVTAYKNLISEVRRNYPDAHIFCCVGPMLWGTGLDLCRSYVTEVVNDCNRSGDLKVYFVEFPQQDGSTGYGEDWHPSIATHQLMAERLTAEIKNKLGW
notes: as for B2
Consider B3, for which, in data set [8], the Km was determined as 165 µM and the kcat is reported as 7,032 min-1.

B4: CtCE2 (Acetivibrio thermocellus ATCC 27405; D789N) (protein)
chain: SQTPDEDNPGILYNGRFDFSDPNGPKCAWSGSNVELNFYGTEASVTIKSGGENWFQAIVDGNPLPPFSVNATTSTVKLVSGLAEGAHHLVLWKRTEASLGEVQFLGFDFGSGKLLAAPKPLERKIEFIGDSITCAYGNEGTSKEQSFTPKNENSYMSYAAITARNLNASANMIAWSGIGLTMNYGGAPGPLIMDRYPYTLPYSGVRWDFSKYVPQVVVINLGTNDFSTSFADKTKFVTAYKNLISEVRRNYPDAHIFCCVGPMLWGTGLDLCRSYVTEVVNDCNRSGDLKVYFVEFPQQDGSTGYGENWHPSIATHQLMAERLTAEIKNKLGW
notes: as for B2
Regarding B4, in data set [8], the Km was 186 µM and the kcat is 2,976 min-1.

B5: CjCE2B (Cellvibrio japonicus Ueda107) (protein)
chain: ADSTKPLPLHIGGRVLVESPANQPVSYTYSWPAVYFETAFKGQSLTLKFDDDQNIFRLIVDDKAPVVINKPGKVDYPVESLAPGKHRVRLEKLTETQSTSGRFLGFYTDPSAKPLALPKRKRQIEFIGDSFTVGYGNTSPSRECTDEELFKTTNSQMAFGPLTAKAFDADYQINASSGFGIVRNYNGTSPDKSLLSLYPYTLNNPDQLYHNKHWKPQVIVIGLGTNDFSTALNDNERWKTREALHADYVANYVKFVKQLHSNNARAQFILMNSDQSNGEIAEQVGKVVAQLKGGGLHQVEQIVFKGLDYSGCHWHPSANDDQLLANLLITHLQQKKGIW
notes: mature form (signal peptide removed), C-terminal His6 tag, pET22b, E. coli BL21; model ordered 26-361; Cys-333, Trp-335, Tyr-206
Turning to B5, in data set [7], the Km is 262 µM and the kcat is recorded as 49,820 min-1.
